From FireProtDB (doi:10.1016/j.jmb.2003.08.024)

B1: Ribonuclease, P00648 (parent)
chain: MMKMEGIALKKRLSWISVCLLVLVSAAGMLFSTAAKTETSSHKAHTEAQVINTFDGVADYLQTYHKLPDNYITKSEAQALGWVASKGNLADVAPGKSIGGDIFSNREGKLPGKSGRTWREADINYTSGFRNSDRILYSSDWLIYKTTDHYQTFTKIR

Variants of: B1
Details: Bacillus amyloliquefaciens, GdnHCl, Hydrogen exchange, HCl 27.5 mM, reversible: yes, structure 1BNI, whole UniProt chain shown

| Variant | ddG of mutation (higher = less stable) (pH 6.8, 30 °C, Imidazole 50 mM) | denaturant m value (pH 6.8, 30 °C, Imidazole 50 mM) | ddG of mutation (higher = less stable) (pH 7.5, 25 °C, Imidazole 50 mM) | denaturant m value (pH 7.5, 25 °C, Imidazole 50 mM) | ddG of mutation (higher = less stable) (pH 7.6, 37 °C, Imidazole 50 mM) | denaturant m value (pH 7.6, 37 °C, Imidazole 50 mM) | ddG of mutation (higher = less stable) (pH 7.9, 37 °C, Tris 50 mM) | denaturant m value (pH 7.9, 37 °C, Tris 50 mM) |
| --- | --- | --- | --- | --- | --- | --- | --- | --- |
| N105A | 1.8 kcal/mol | 4.91 kcal/mol/M | – | – | – | – | – | – |
| S138A | 1.8 kcal/mol | 4.91 kcal/mol/M | – | – | – | – | – | – |
| S132C H149C | – | – | -4.3 kcal/mol | 4.91 kcal/mol/M | -4.6 kcal/mol | 4.91 kcal/mol/M | -4.5 kcal/mol | 4.91 kcal/mol/M |
| A90C S127C | – | – | -1.9 kcal/mol | 4.91 kcal/mol/M | -1.9 kcal/mol | 4.91 kcal/mol/M | -1.8 kcal/mol | 4.91 kcal/mol/M |
